According to the DeepSol protein solubility set:

assay: soluble on expression in E. coli; label from the status in PepcDB or PDB records

| Sequence | soluble on expression in E. coli |
| --- | --- |
| MLRKISLLLSICFLLHQNIAYGEDNQQSIYEKRMALYKETEQSSGIPWYYLAAMDQYERNIRSVRKDIPKKPDAIISLYFKPEIWAGPVNGNDTLPHTIALFGGLGLDGDKDGFANANNDRDLLHTAATILKKQGTSEERIKIMLWEYYRRAKTVDLITEYAQIYKHYGRINLEGNAFPLPIRSDHSYRSTFGAGRSFGGRRVHEGTDIFAGYGVPVRSTCYGIIETKGWNRLGGWRIGIRDLHNNYHYYAHLGGFSKEIQLGQIVEPGKVIGFVGSTGYGPPGTAGKFPPHLHFGMYKDNGYTEWAFDPYMHLSLWERKERANTKR | not soluble |
| MAVDVFITAPSSTPLACEMTISKLVLASGSPRRRELLAQMGYQFEVVVPNVEEKRAAAESPAQYVERLSRDKALAGAALVAAEAVVIGSDTIVVKDQQVLEKPRDFADAKRMLLKLSGSQHQVMTGVSVTCRGITHSVVVTTEVWFKTLSEQEIEAYWQSGEPCDKAGSYGIQGLGGRFVTRIEGSYHAVVGLPLYETDQLLHKF | not soluble |
| MSLCCISFRVGTGPCVTSGADRLTKGPLRKSAPVSQPEANPKSRSFSGNFLNHTFRRENPMSEITSLVTAEAVKDVLRSEEVRSALKQKLRHNLEARLDAEVDAILDELLGVQAEPPTEAGDTTAESGEVQPESPVADATEPQPESVMMLEGHHHHHH | soluble |
| MSLTIKEIADKVNLSPTTVSNVIHGRKGKVSPDNYKKISRALEESKYVSNMGGRLLGRHGSKIIAVILNYERRSEMNVVSDPFYNQIVGFLEEEIRKKSYFMMLYTSGSVTESLRLATAWDIEGLIVLGSHPDDAKNFIKQQKRPVAFIDTYVDKESMTDDFINVGLQDFKGGYQITNYLIGLGHRRIGFFADGNQLLGVDQQRFAGFKKALSEADINLENPGFFGLDYRTNQRHIFLKKFSETKLKDYTALVFTSDFLAVDAINVFLDNGFKVPEDISITGFDHNIFSEQCRPKLTTIGQNVQKKAVLAVDFLTERIQSKQAIKKINLLLDAELIVQDSTAREGHHHHHH | soluble |
| MVSAKDFSGAELYTLEEVQYGKFEARMKMAAASGTVSSMFLYQNGSEIADGRPWVEVDIEVLGKNPGSFQSNIITGKAGAQKTSEKHHAVSPAADQAFHTYGLEWTPNYVRWTVDGQEVRKTEGGQVSNLTGTQGLRFNLWSSESAAWVGQFDESKLPLFQFINWVKVYKYTPGQGEGGSDFTLDWTDNFDTFDGSRWGKGDWTFDGNRVDLTDKNIYSRDGMLILALTRKGQESFNGQVPRD | soluble |
| MARQLRAEQTRATIIGAAADLFDRRGYESTTLSEIVAHAGVTKGALYFHFAAKEDLAHAILEIQSRTSRRLAKDLDGRGYSSLEALMRLTFGMARLCVQGPVLRAGLRLATAGVPVRPPLPHPFTEWREIATSRLLDAVRQSDVHQDIDVDSVAHTLVCSVVGTRVVGGTLEPAGREPRRLAEMWYILIRGMVPVTRRARYVTLAARLEQETGTA | soluble |
| MGSDKIHHHHHHMSEKTLLELPKKFMEALMAPFIGREEEAKVITLALLSKEHVILIGEPGTAKSALARRAAELLNAKFFMYLLTKYTEPAELFGALDINALKDGQYKRITKDRLPESQIAFLDEIFNANSAILNALLSLLNERVIYDGYNVIKVPLRTLISASNRVPDEPELEALYDRLLLRHYARPVGEELWKQLLDATWEIEFTNRWAVKEPIMNIEHLDKLYSYLSQVDLSGVKNKLLKLYAMLEEKGIHLSDRRKGKVLKVVSAHAILNSRLKATEEDLIVLKYIAPREIDDFEKVAALLSEELKTPIKYMKELNEIYNNIKEAAKYVEAANESDPRLIELIRSLRATRDRIVALGKESGDEKVEEFSKEVLSEIDKLIEKVARKLGIYP | not soluble |
| MMTQGPNLIGIHTNTKENEETQKFVNWFLNTSLTWDNNESKTPAQYFTESASYILPLKETFTGSNNKGQSGKNDGKNSNNTFKAKALELFKEQSENKIVGYSDPSDFRGGKFRESIGSAFNATVNSHVDFNTFVANFRANLGSGYDK | soluble |
| GPGSMTDDSSGLQSELSHALEGEGNLSVDAMLSQSLVKADLQTPSARILLKKIERPPGRFDLLTNSLVYSWQTTAAQARKVTGPMREWASELKYRTGVHLEVEPTNPTRLGVPEEEGGYAAADDVELTVYLFGSERGIFNCRQLMETALDQNPAYVRLAVFRRRPGKGVSTSTAAVPRPQEDVEWLLLRRINRDLRPPDIPPISLKTPGKWTLLYEQYKEAAIRTLWEETGITVEAGNVYPTAVLCQDNPIYYWRVPVHYFLAEVPYDVQVLGPQVGLNTYMHHWDSSLLRQSPDPIDRAWAQLADPETGCAWMKQPMIDELQRPLRGENYMATRYTPPPYSQLNHALGLAVPAEAAGEASAADSALSAATTAEGGEAQDDVKEDDAAAPSADADASSSNDKPSS | soluble |
| MRLTGKQTWVFQNDIYVNATGTAVGPKEAEGPLGKKFDISYGDLHCGEENWELAERRLMSDSIQQAVQKGNIKTSQIDFFLAGDLLNQTVTANYVARKWGIPFLGMFSACATSMETLAVGSAFIDGGFANRVLATVSSHNATAERQFRYPTEYGGQKPGTANSTVTGAGSILISNEKSAIKITSATIGKVQDLGITNPLDMGAAMAPAAAHTIQQHFEDLRRSADDYDLIVTGDLSAVGTPIAKQLLLEEGYDLGHIYNDCGLMIYESSQEEVFAGGSGCACSAVVTYGHLLHEMQKGNLQRIFVVATGALLSPMMMQQKETIPTIAHGVVFERVKGELEHHHHHH | soluble |
| MGSDKIHHHHHHENLYFQGMKQIPQDFRLIEDFFRTRRSVRKFIDRPVEEEKLMAILEAGRIAPSAHNYQPWHFLVVREEEGRKRLAPCSQQPWFPGAPIYIITLGDHQRAWKRGAGDSVDIDTSIAMTYMMLEAHSLGLGCTWVCAFDQALCSEIFDIPSHMTPVSILALGYGDPTVPPREAFNRKTIEEVVSFEKL | soluble |
| MKLALFDLDNTLLAGDSDFQWAQFLIEQQVLDREVYEARNIEFYEQYKAGTLDIHEFLDFQLKPLSRHPREQLNTWRSDFIERKIAPLIAPGARELIARHQAEKDLCIIITATNSFVTAPIARMLGIDHLIATEPEQKNGEFTGRVTGIPSFQAGKITRLEQWLDAHNLTWLSFLQSWFYSDSLNDLPLLKRVTHPVAVDPDATLHEHAKKSGWPIISLRQ | not soluble |
| QMPQPLAYAQALLAQFASLARAVNGAQLLGDFVRSLAELSGCELSQLYLLDATHKCLKMRAECLDGTLQPREAASLPVDYNGEQLLQFALCQNRVVCLGELSGSLHETSFLPTQSTPWQSLLCVPVVNHQQAVEGLLLCASRRHVDLQGFADSLGQFGSFALGQLNLLQRLHKPADEVRPAGITMPSVSGYG | not soluble |
| MIEKKKNRSKLKREAILAAAKKAYQDDGVQNTSMDKLASLAQVSKRTVYNHFSSKEALVMELLSDLWQNSMADIDIQFSENVSIQDQLERLLLAELNVIGAQSYLDLAKVAFGHFFYKPDELQLQVEKMAEQETALSRWLQLMMDTKKLTIEDKHKAGVQLHSLLKGSAFWPQLVGMRAVLSSEEKEQLVTETADMFLSRYLKR | not soluble |
| MGSDKIHHHHHHMEIEAVEKEAIEKLSKISNVQELESFRIEFLGKKGKITGLMKNLKNLPPEERPAYGKRVNELREKIEKLFEEKRQQIQRILEQEKMEKMRIDVTVPGARRKLGHSHPVLKVMEEIERIFVSMGFDVVEGPEIETTWHNFDALNTPEWHPARDEHDSFYITDDLLLRTHTSPVQIRTMLERKPPIAIISPGKVYRRDYDATHLPMFHQVEGLHVDRDLSVAHLKFTLEEFARRMFGEGAKVRLRPSFFPFTEPSFEVDVYLSGYGWLEILGAGMVDPNVFLNVGYDPEEWTGYAFGMGVERIAMLKYGIADIREFVRNDVRFLSSY | not soluble |
| YIRKRVPLLCLGKRWFVFDKSLMKKTISYGSTSAMQQVCLQIGKTIIQAVVNTQGVSVMAAFTAVNRVDDFAYIPQQNIGHAMTTFIAQNKGAGKRERIRRGLQ | not soluble |
| SAHSKTRTNDGKITYPPGVKEISDKISKEEMVRRLKMVVKTFMDMDQDSEEEKELYLNLALHLASDFFLKHPDKDVRLLVACCLADIFRIYAPEAPYTSPDKLKASTDLNNSKIDRYFDLSF | soluble |
| MGSDKIHHHHHHMKRTPLFEKHVELGAKMVDFAGWEMPLYYTSIFEEVMAVRKSVGMFDVSHMGEFLVKGPEAVSFIDFLITNDFSSLPDGKAIYSVMCNENGGIIDDLVVYKVSPDEALMVVNAANIEKDFNWIKSHSKNFDVEVSNISDTTALIAFQGPKAQETLQELVEDGLEEIAYYSFRKSIVAGVETLVSRTGYTGEDGFELMLEAKNAPKVWDALMNLLRKIDGRPAGLGARDVCRLEATYLLYGQDMDENTNPFEVGLSWVVKLNKDFVGKEALLKAKEKVERKLVALELSGKRIARKGYEVLKNGERVGEITSGNFSPTLGKSIALALVSKSVKIGDQLGVVFPGGKLVEALVVKKPFYRGSVRREV | not soluble |
| MAHHHHHHMVNFILNEAKDKAHEIEAKALEDFNIEKLRIVQKMKEKIRVEFQKKAKQMEIKRSIARSSAINKARLKKMCAKDQVFKEIYKISSDKLNDLYKDKDKYKNLIVDLIVQSLFYMQEPHVIVRCRDIDKAVVESSLNEAVSKYTDKLKKQFNVTKTVKIELDKSGNYLPPPPTPENEGNSCLGGVILTTPNRKINCDNTLDVRLKLAIEYCTPEIKRMFFENA | not soluble |
| MDLDADFLLLHLSDSALPTGAFAHSFGFETYMDAERITNAEEFQDWLKVLLKVQLTSSDALAMRMFYATPTVSELKRLDERLFAGTPAREIREANARMGTRMAEIVAETYSVPLIVEYLELIQHRELSGHPALALALATHSAGIDVDRAIHAHLTATVSSLIQNAVRGIPLGQMAGQRVMFAMREHIGAAVKRSANLDEIDFCSGDPGLDISQMVHETQRARLFMSLEHHHHHH | not soluble |
| MPTDDKARPRKTLTIKKTAPAAPSADDEAPRRKRIGARARLVAQMERAKEQQHAPRRKAPRQDAAHQDDAPRRRPRAPREAEIFPVYAPCPQGIEEALAAEMQALGFEDARAGRAGCAFSTDWAGVQRANLYSRLATRILVQVAQADIGHEDDILDLARSVPWERWFGPDETLRVDTSAIKSPVKSLQYCNLRAKDGICDRLREVEGARPDIDTVRPDARVHLFLSGTTATLYLDTSGESLFKRGWRLDKGEAPLRENLAAGMLALAGWDPAEPLLDPFCGSGTILIEAAWIALGVPPGISRPFGFERLRNHDARRWQDLKADARTRIQTQLETPLFGYDLDPRAIQYAQANAERAWLTADTIRFEVGDARHLAAPADHGWIVTNPPYGERMETEDDSEMWRDWAACLKRQFAGWQVHVISSDMTLPQRLRLKPLRRVPLHNGALDCRLFGFELVPASYRKPA | not soluble |
| MSGNYVINIGRQLGSGGKEIGEKLAARLGIDFYDKELINLASEESGLCKEFFEKADEKASQGIIGGLFGMRFPFISEGAMPCTNCLSNDALFKVQSDVIRRLAAEKSCVFVGRCADYILREHPRCANVFISATKEDRIARLCQMHRIDEEAAEEMIEKADKRRSEYYNYYSYKTWGAAATYHLCVDSSSLGIEETVRFVEEFVAKKLQIGM | not soluble |
| MGSDKIHHHHHHMHVDIELPLGRATALQRLRAQGFCVLTPAALETLTGMPLDAFDMMLPYWEELAPDLHLKDGGHYRYRRHGCFMQTLQPGQLETVQHRAHWQPTTYNALHGGMERWFEPLSNEMIHLPSWSALLVALGELFAKLRAPQGGRWYIEAHPFRIDTEGGVGRPTPEGAHRDGVDFVAVVFIGRQGVRGGETRVFDAAGPQGVRFTLEQPWTVLLLDDQQVIHESTPLLPLDPADPAVPAHRDTLVLTYRSGGFQAPA | not soluble |
| GSLRPLSEVNQHSQLMAQLVEVIEDSFQMKVNKESVNYLRLIRHIRFTIERIKKEEPTKEPEKLMLLLKNEYPLCYNTAWKLIKILQQTLKKPVHEAEAVYLTLHLIPINQ | soluble |
